According to patent US20250361274A1, “PEPTIDE AND PEPTIDE-CONTAINING AGENT” (PEPTIDREAM INC., priority 2022, published 2025):
Read-outs that look alike come from different tables or passages of the source. Numbered stars: 1 amine (or outer) side, 2 acyl side, 3 side chain; on linkers, the order of the positions; unused ones are H or OH. Bridge positions count the residues as written; N and C are the ends. Square brackets hold non-standard residues; d marks the D form. Ends that are not written are not given here. KCOpipzaa = N6-(4-(carboxymethyl)piperazine-1-carbonyl)-L-lysine, O=C(NCCCC[C@H](N[*:1])C(=O)[*:2])N1CCN(CC(=O)[*:3])CC1; 3Pal(6-Ph) = N[C@@H](Cc1ccc(-c2ccccc2)nc1)C(=O)O; Phe(4-COOH) = N[C@@H](Cc1ccc(C(=O)O)cc1)C(=O)O; Bip = N[C@@H](Cc1ccc(-c2ccccc2)cc1)C(=O)O; Ala(4-THP) = N[C@@H](CC1CCOCC1)C(=O)O; Hyp = O=C(O)[C@@H]1C[C@@H](O)CN1; βAla = NCCC(=O)O

Legend:
BMP4 [1] = biological target: T1, BMP4 (Homo sapiens, UniProt P12644); experiment: Intermolecular interaction by surface plasmon resonance (SPR), immobilized BMP4; type: binding; details: which BMP is not specified
T1 sequence (P12644 293-408): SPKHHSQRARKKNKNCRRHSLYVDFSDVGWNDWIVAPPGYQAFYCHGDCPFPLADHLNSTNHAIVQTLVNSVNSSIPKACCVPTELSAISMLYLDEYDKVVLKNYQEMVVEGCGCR
Description: The test of the intermolecular interaction by the surface plasmon resonance (SPR) of each of the peptides synthesized in Examples 2 and 3 against BMP4/BMP7 was performed by the following manner. The test method is specifically shown as follows.
A CM5 sensor chip (Cytiva) was inserted into a BiacoreT200 (Cytiva). Three priming runs were performed using running buffer: HBS-EP+ (Cytiva). The system was then equilibrated at a flow rate of 30 μL/min. Subsequently, 50 μL of 60 mM EDC solution (Cytiva) and 50 μL of 650 mM NHS solution (Cytiva) were mixed and were allowed to react at a flow rate of 10 μL/min for 420 seconds. The resultant was diluted with a 10 mM acetic acid solution (pH 5.0), to prepare 150 μL of 0.2 μM BMP4/BMP7 solution. The solution was allowed to react at a flow rate of 10 μL/min for 420 seconds, and the BMP4/BMP7 was immobilized in a CM5 sensor chip. After immobilization, capping was performed by reacting with 1.0 M ethanolamine aqueous solution (Cytiva) at a flow rate of 10 μL/min for 420 seconds. […]
(§1) The kinetics evaluation model was Single Cycle Kinetics, and curve fitting was performed using Biacore T200 Evaluation Software Version 3.0 (Cytiva). The binding of peptides to BMP4/BMP7 was evaluated by performing least-squares curve fitting on the obtained sensorgram to calculate the KD value.

BMP4 [2] = biological target: T2, BMP4 (UniProt P12644 293-408); experiment: cell-based or functional assay
T2 sequence (looked up): T1 sequence (P12644 293-408)

BMP7 [3] = biological target: T3, BMP7 (UniProt P18075 293-431); experiment: cell-based or functional assay
T3 sequence (looked up): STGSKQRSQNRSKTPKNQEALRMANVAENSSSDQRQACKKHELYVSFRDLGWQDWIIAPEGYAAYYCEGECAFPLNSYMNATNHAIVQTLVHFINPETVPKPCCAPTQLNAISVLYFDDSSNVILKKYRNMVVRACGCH

BMP4 [4] = biological target: T2, BMP4; experiment: cell-based or functional assay; remark: listed apart in the source
BMP7 [5] = biological target: T3, BMP7; experiment: cell-based or functional assay; remark: listed apart in the source
BMP4 [6] = biological target: T2, BMP4; experiment: SPR (Biacore T200), BMP4 amine-coupled on CM5 chip, peptide as analyte, single cycle kinetics
Description: (§2) A CM5 sensor chip (Cytiva) was inserted into a BiacoreT200 (Cytiva). Three priming runs were performed using running buffer: HBS-EP+ (Cytiva). The system was then equilibrated at a flow rate of 30 μL/min. Subsequently, 50 μL of 60 mM EDC solution (Cytiva) and 50 μL of 650 mM NHS solution (Cytiva) were mixed and were allowed to react at a flow rate of 10 μL/min for 420 seconds. The resultant was diluted with a 10 mM acetic acid solution (pH 5.0), to prepare 150 μL of 0.2 μM BMP4/BMP7 solution. The solution was allowed to react at a flow rate of 10 μL/min for 420 seconds, and the BMP4/BMP7 was immobilized in a CM5 sensor chip. After immobilization, capping was performed by reacting with 1.0 M ethanolamine aqueous solution (Cytiva) at a flow rate of 10 μL/min for 420 seconds. A liquid prepared by dissolving each peptide at 10 mM in a DMSO solution was diluted with a running buffer so that the final concentration of the peptide-dissolved liquid would be 10 μM. Then, the peptide solutions (100 nM, 50 nM, 25 nM, 10 nM, and 5 nM) were prepared. […]
as §1

BMP7 [7] = biological target: T3, BMP7; experiment: SPR (Biacore T200), BMP7 amine-coupled on CM5 chip, peptide as analyte, single cycle kinetics
Description: as §2, §1

BMP4 [8] = biological target: T2, BMP4; experiment: cell-based or functional assay; remark: listed apart in the source
BMP7 [9] = biological target: T3, BMP7; experiment: cell-based or functional assay; remark: listed apart in the source
BMP2 = BMP2 (UniProt P12643 283-396); experiment: cell-based or functional assay
BMP2, sequence (P12643 283-396 limits assumed): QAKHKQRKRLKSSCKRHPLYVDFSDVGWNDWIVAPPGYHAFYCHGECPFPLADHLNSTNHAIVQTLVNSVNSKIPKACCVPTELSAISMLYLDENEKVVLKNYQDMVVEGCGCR

BMP4 [10] = biological target: T2, BMP4; experiment: cell-based or functional assay; remark: listed apart in the source
BMP7 [11] = biological target: T3, BMP7; experiment: cell-based or functional assay; remark: listed apart in the source
BMP7 [12] = biological target: T3, BMP7; experiment: cell-based or functional assay; remark: listed apart in the source
BMP5 = biological target: T4, BMP5 (UniProt P22003 317-454, limits assumed); experiment: cell-based or functional assay
T4 sequence (looked up): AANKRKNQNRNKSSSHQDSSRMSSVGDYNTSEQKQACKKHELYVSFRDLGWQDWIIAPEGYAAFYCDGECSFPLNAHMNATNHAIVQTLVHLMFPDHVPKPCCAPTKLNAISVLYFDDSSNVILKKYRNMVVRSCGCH

BMP6 = biological target: T5, BMP6 (UniProt P22004 382-513, limits assumed); experiment: cell-based or functional assay
T5 sequence (looked up): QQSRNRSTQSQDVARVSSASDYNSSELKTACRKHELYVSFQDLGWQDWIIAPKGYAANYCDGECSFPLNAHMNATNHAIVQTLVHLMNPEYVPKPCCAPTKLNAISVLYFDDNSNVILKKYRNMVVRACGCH

Molecule: E-R-V-F4COO-Atp-D-R-Bph-P-Y-P-Bph-Y-F4COO-F4COO-S-C (ERV[Phe(4-COOH)][Ala(4-THP)]DR[Bip]PYP[Bip]Y[Phe(4-COOH)][Phe(4-COOH)]SC) [SEQ ID NO: 1]
- BMP binding activity (in words) (BMP4 [1]): confirmed to have BMP binding activity

Molecule: recombinant Human Noggin Protein (R&D) (from UniProt Q13253 28-232)
- IC50 (nM), SMAD1 phosphorylation in A549 cells (BMP4 [2]): 0.08 nM
- IC50 (nM), SMAD1 phosphorylation in A549 cells (BMP7 [3]): 2.7 nM
- IC50 (nM), SMAD1 phosphorylation in A549 cells (BMP4 [4]): 0.13 nM
- IC50 (nM), SMAD1 phosphorylation in A549 cells (BMP7 [5]): 5.74 nM

B1: BMP4 signal transduction inhibition peptide No. 84 (SEQ ID NO: 84) (peptide)
peptide: {CH2CO}-ERVYVDR[Bip]PYV[Bip]Y[Phe(4-COOH)][Phe(4-COOH)]SC[βAla][dE]-OH
modifications: thioether N-17
SMILES: CC(C)[C@@H]1NC(=O)[C@H](Cc2ccc(O)cc2)NC(=O)[C@H](C(C)C)NC(=O)[C@H](CCCNC(=N)N)NC(=O)[C@H](CCC(=O)O)NC(=O)CSC[C@@H](C(=O)NCCC(=O)N[C@H](CCC(=O)O)C(=O)O)NC(=O)[C@H](CO)NC(=O)[C@H](Cc2ccc(C(=O)O)cc2)NC(=O)[C@H](Cc2ccc(C(=O)O)cc2)NC(=O)[C@H](Cc2ccc(O)cc2)NC(=O)[C@H](Cc2ccc(-c3ccccc3)cc2)NC(=O)[C@H](C(C)C)NC(=O)[C@H](Cc2ccc(O)cc2)NC(=O)[C@@H]2CCCN2C(=O)[C@H](Cc2ccc(-c3ccccc3)cc2)NC(=O)[C@H](CCCNC(=N)N)NC(=O)[C@H](CC(=O)O)NC1=O
notes: thioether ring between N-terminal chloroacetyl and Cys17
- Kd (BMP4 [6]): 2.1 nM
- Kd (BMP7 [7]): 21.7 nM

Molecule: {CH2CO}-ERV[Phe(4-COOH)]V[KCOpipzaa]R[3Pal(6-Ph)][KCOpipzaa]Y[Hyp][Bip]Y[Phe(4-COOH)][Phe(4-COOH)]SCG-NH2 (thioether N-17 (inferred)) [BMP4 signal transduction inhibition peptide SEQ ID NO: 277 (Example 8)]
- IC50 (nM), SMAD1 phosphorylation in A549 cells (BMP4 [8]): 0.073 nM
- IC50 (nM), SMAD1 phosphorylation in A549 cells (BMP7 [9]): 455 nM
- IC50, SMAD1 phosphorylation, BMP2 0.3 nM (BMP2): 0.45 nM

B2: BMP4 signal transduction inhibition peptide No. 177 (SEQ ID NO: 177) (peptide)
peptide: {CH2CO}-ERV[Phe(4-COOH)][Ala(4-THP)]DR[Bip]PYP[Bip]Y[Phe(4-COOH)][Phe(4-COOH)]SC[βAla][dE]-OH
modifications: thioether N-17
SMILES: CC(C)[C@@H]1NC(=O)[C@H](CCCNC(=N)N)NC(=O)[C@H](CCC(=O)O)NC(=O)CSC[C@@H](C(=O)NCCC(=O)N[C@H](CCC(=O)O)C(=O)O)NC(=O)[C@H](CO)NC(=O)[C@H](Cc2ccc(C(=O)O)cc2)NC(=O)[C@H](Cc2ccc(C(=O)O)cc2)NC(=O)[C@H](Cc2ccc(O)cc2)NC(=O)[C@H](Cc2ccc(-c3ccccc3)cc2)NC(=O)[C@@H]2CCCN2C(=O)[C@H](Cc2ccc(O)cc2)NC(=O)[C@@H]2CCCN2C(=O)[C@H](Cc2ccc(-c3ccccc3)cc2)NC(=O)[C@H](CCCNC(=N)N)NC(=O)[C@H](CC(=O)O)NC(=O)[C@H](CC2CCOCC2)NC(=O)[C@H](Cc2ccc(C(=O)O)cc2)NC1=O
notes: as for B1
- IC50 (nM), SMAD1 phosphorylation in A549 cells (BMP4 [10]): 0.053 nM
- IC50 (nM), SMAD1 phosphorylation in A549 cells (BMP7 [11]): 1.4 nM
- IC50, SMAD1 phosphorylation, BMP7 10 nM (BMP7 [12]): 1.43 nM
- IC50, SMAD1 phosphorylation, BMP2 0.3 nM (BMP2): 0.21 nM
- IC50, SMAD1 phosphorylation, BMP5 2 nM (BMP5): 9.17 nM
- IC50, SMAD1 phosphorylation, BMP6 3 nM (BMP6): 3.9 nM
- Kd (BMP4 [6]): 0.4 nM
- Kd (BMP7 [7]): 2.3 nM
